Measurements as given in publication PMC12730314, “The Role of Surfactants in Stabilizing Fluorescence Anisotropy for Protein–Aptamer Binding Affinity Measurements”.

B1: TR-labeled s10yh2 (ssDNA)
DNA: TCCACGATGTAGGATCCACATGAGCGCTCCTGTTACCCTG
B2: TR-labeled thrombin-binding 29mer (structured_DNA)
DNA: AGTCCGTGGTAGGGCAGGTTGGGGTGACT

Assays:
[1] = biological target: human serum albumin (HSA) (Homo sapiens, UniProt P02768 25-609); experiment: fluorescence anisotropy; PBS + 5 mM MgCl2, no Tween 20; saturable, poor 1:1 fit; 25 C, 40 min; HSA: PBS +; conditions: protein: commercial
Sequence of human serum albumin (HSA) (P02768 25-609): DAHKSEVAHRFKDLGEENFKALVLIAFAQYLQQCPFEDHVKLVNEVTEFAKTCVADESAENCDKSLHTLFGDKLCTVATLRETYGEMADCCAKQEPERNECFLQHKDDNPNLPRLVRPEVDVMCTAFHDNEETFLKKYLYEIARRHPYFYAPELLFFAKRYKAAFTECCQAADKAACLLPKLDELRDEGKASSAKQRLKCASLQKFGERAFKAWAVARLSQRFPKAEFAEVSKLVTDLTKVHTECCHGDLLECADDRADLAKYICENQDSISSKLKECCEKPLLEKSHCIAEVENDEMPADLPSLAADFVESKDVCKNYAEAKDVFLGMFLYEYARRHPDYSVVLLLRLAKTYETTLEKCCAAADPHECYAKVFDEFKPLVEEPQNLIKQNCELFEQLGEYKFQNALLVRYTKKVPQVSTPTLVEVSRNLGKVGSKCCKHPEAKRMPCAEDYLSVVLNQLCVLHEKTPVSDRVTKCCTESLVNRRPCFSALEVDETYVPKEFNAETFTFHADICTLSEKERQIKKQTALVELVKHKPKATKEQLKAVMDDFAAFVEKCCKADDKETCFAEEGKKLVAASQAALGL

thrombin (human plasma) [2] = biological target: T1, thrombin (human plasma) (Homo sapiens, UniProt P00734;P00734 328-363;364-622); experiment: fluorescence anisotropy; 0.1% Tween 20, 75 nM aptamer; Hill fit; Thrombin: TGK (192 mM Tris, 5 mM KH2PO4, 25 mM glycine hydrochloride; pH not stated) +/- 0.1% Tween 20, thrombin stock in 1 mg/mL BSA, 25 C, 40 min; HSA: PBS +
thrombin (human plasma) [3] = biological target: T1, thrombin (human plasma); experiment: fluorescence anisotropy; 0.1% Tween 20, 25 nM aptamer; Hill fit; Thrombin: TGK (192 mM Tris, 5 mM KH2PO4, 25 mM glycine hydrochloride; pH not stated) +/- 0.1% Tween 20, thrombin stock in 1 mg/mL BSA, 25 C, 40 min; HSA: PBS +
thrombin (human plasma) [4] = biological target: T1, thrombin (human plasma); experiment: fluorescence anisotropy; no surfactant, 75 nM aptamer; Hill fit; Thrombin: TGK (192 mM Tris, 5 mM KH2PO4, 25 mM glycine hydrochloride; pH not stated) +/- 0.1% Tween 20, thrombin stock in 1 mg/mL BSA, 25 C, 40 min; HSA: PBS +
thrombin (human plasma) [5] = biological target: T1, thrombin (human plasma); experiment: fluorescence anisotropy; 0.1% Tween 20, 50 nM aptamer; Hill fit; Thrombin: TGK (192 mM Tris, 5 mM KH2PO4, 25 mM glycine hydrochloride; pH not stated) +/- 0.1% Tween 20, thrombin stock in 1 mg/mL BSA, 25 C, 40 min; HSA: PBS +

Binder	binding result [1]	Kd (thrombin (human plasma) [2]) [nM]	Kd (thrombin (human plasma) [3]) [nM]	Kd (thrombin (human plasma) [4]) [nM]	Kd (thrombin (human plasma) [5]) [nM]
B1	binds				
B2		30	35	54	53
